The record followed here is paper PMC4072508, “Genome-Wide Prediction and Validation of Peptides That Bind Human Prosurvival Bcl-2 Proteins” (PLoS Computational Biology, 2014).

The target of the test is Bcl-xL, Q07817. Briefly: peptide SPOT array, c-Myc-tagged receptor at 1 uM or 100 nM, anti-c-Myc-Cy3.
Bcl-xL, Q07817, sequence (Q07817 1-209): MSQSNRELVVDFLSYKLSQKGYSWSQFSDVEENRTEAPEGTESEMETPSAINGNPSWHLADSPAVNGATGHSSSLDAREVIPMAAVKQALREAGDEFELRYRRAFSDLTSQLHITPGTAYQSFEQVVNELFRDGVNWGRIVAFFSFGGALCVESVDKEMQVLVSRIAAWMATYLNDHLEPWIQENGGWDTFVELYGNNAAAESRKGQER

On to NESLTDTARVLSSMADAVLARVYKQS [OTC], for which the SPOT signal as a fraction of Bim BH3's signal on the same receptor and array came out at 0.03.
For DFMGRTFAKPLVKMLDEAYCPPRFPP [OTOF], the SPOT signal as a fraction of Bim BH3's signal on the same receptor and array was found to be 0.17.
KYDPSKYCHNLKKILEDFSNTIPISS [NOL8] registered an SPOT signal as a fraction of Bim BH3's signal on the same receptor and array of 0.28.
In the case of RYPILENPEIDRKTADDFLNRIALTD [CCNH], the SPOT signal as a fraction of Bim BH3's signal on the same receptor and array amounted to 0.02.
To FEKLRMIAKEDRHVGRMASVNMDPAL belongs 0.13; to TCRISESVKKLMELAYQTLLEATTSS [ZW10], 0.04; to KFELEQNIKELNTLADQVDTTHELLT [APOL5], 0.02.
As for LREVRESIRFDRQVGRDWVQRRREAL [CYP46A1], the figure is 1.14; as for EVNMSLSGRYLEELSQRYRKQMEEMQ [C1orf9], 0.03.
As for PKIYEGAARKLNVSSDTVQHGVEGLT [COMMD2], the figure is 0.03; as for MGVLAAAARCDVRGADRMSKWTSKRG [MRPL41], 0.56; as for NRKGEKNGKGLRHFLMKVCEKVQRKG [TFDP1], 0.42.
As for IKKSVTKGEMDKIVGKRFREHFPEIL [MAGEB2], the SPOT signal as a fraction of Bim BH3's signal on the same receptor and array is 0.4.
As for GFQVLNAIENLDDNAQRYDLDGLEKA [C9orf167], the figure is 0.03; as for GELAQVSGLEDRKWVDELFIIIMDML, 0.02; as for LHQAKDFGNYLFNFASAATKKITESV [SYAP1], 0.21.
In the case of SQDFSELSTQLTGVARDLQEEMLPGS [MON1A], the SPOT signal as a fraction of Bim BH3's signal on the same receptor and array amounted to 0.03.
Take TREAQKMAQLLVVLGKIINMKIKLFM [UGGT2]: the SPOT signal as a fraction of Bim BH3's signal on the same receptor and array amounted to 0.1.
As for PFDCRDYAVVDRKYADKIYSISMKHP [FOLH1], the figure is 0.45.
To LRQMQECAKRIAKVSAEAKLEIDEET [SKIV2L2] belongs 0.03.
To KAIFDRLCKQLEKIGQQVDREPGDVA [ORC6L] belongs 0.04; to HSEITPYATDLAQTSEKLIPHLHKLP [CCDC129], 0.02; to AYRGRGIAKHLAKALLDFVVEEDLKA, 0.17.
The molecule AYRGRGIAKHDAKAALDFVVEEDLKA displayed an SPOT signal as a fraction of Bim BH3's signal on the same receptor and array of 0.21.
SSLSDGLPVHLANILDELTQKKKMFK [AGBL2]: the SPOT signal as a fraction of Bim BH3's signal on the same receptor and array came out at 0.1.
For DNHKKKTVKMDEYLGKDVLHGVFNYL [CASP5], the SPOT signal as a fraction of Bim BH3's signal on the same receptor and array came to 0.11.
As for EARVLEEASRLEEEAQQTRLQLQQRL [EVC], the figure is 0.02; as for FEKLRMIAKEIRHVLRMASVNMDPAL, 0.09.
To EVDVGKLVSRLQDGGTKITPKATNGP [OPHN1] belongs 0.02.
With RRRLLLASKELHQVAHDLDDELAWVQ [SPTBN4], the SPOT signal as a fraction of Bim BH3's signal on the same receptor and array came out at 0.06.
For PFGLQGNSEYLIEFSRNLGKSSEHLL [CGNL1], the SPOT signal as a fraction of Bim BH3's signal on the same receptor and array was determined as 0.03.
Turning to QEELQDWVKKIREVAQTADARLTEGK [PLCG1], the SPOT signal as a fraction of Bim BH3's signal on the same receptor and array turned out to be 0.03.
For DTIFHRAAVRDRDLGGAILRHARRQA [BRPF3], the SPOT signal as a fraction of Bim BH3's signal on the same receptor and array stood at 1.5.
To NVGCQQDSEELLKLATSISETLEEKP [UBA6] belongs 0.02.
In the case of GAQHSTMTSTDRRLGEDIFKGVVTKG [CCDC138], the SPOT signal as a fraction of Bim BH3's signal on the same receptor and array is 0.03.
Molecule FQEAKQFGQKLQDLAEHSDPEVRDKV [ARMCX5] displayed an SPOT signal as a fraction of Bim BH3's signal on the same receptor and array of 0.02.
To LHNLVKAAQSLDEMSQTITDLLSEQK [RB1CC1] belongs 0.03; to KTALEKYHDGIEKAAEDSYAKIDEKT [NUF2], 0.02; to REEIRKVVQSLEQTAREILTLLQGVH [TSN], 0.04.
As for LQIIPTLCHLLRALSDDGVSDLEDPT [DFNA5], the SPOT signal as a fraction of Bim BH3's signal on the same receptor and array was determined as 0.03.
To GKDHPDVAKQLNNLALLCQNQGKYEE [KLC1] belongs 0.02; to VIKQRRLPDQLSKLLDRIQLSGRYYL, 0.84; to PHQFDGVPDKDIQAAYQVKYNSKKMK [EVI5], 0.58.
NPIGLYSAETLREMAQMYQMSLRGKA [LDB3] yielded an SPOT signal as a fraction of Bim BH3's signal on the same receptor and array of 0.3.
To AHKARALARLDRQTALAAFSDFKRLQ [FAM43B] belongs 1.22; to RAELTGLARRLADRARELQETNLRAV [RIMBP3C], 0.22.
For RTNNYQLSDELRKNLVELTSLRQKVA [GRIPAP1], the SPOT signal as a fraction of Bim BH3's signal on the same receptor and array worked out at 0.52.
VYILRKAARRLAQVSRAAGVRVGLLS [CACNA1G]: the SPOT signal as a fraction of Bim BH3's signal on the same receptor and array is 0.76.
As for CLSCDLCGCRDGEVGRRLYYKLGRKL [LMO2], the figure is 1.08.
To GELAQVSGLEMRKWLDELFIIIMDML belongs 0.02; to DISALTASNLLKKYLEKYSGILEGPV [FIGN], 0.13.
Molecule TCELGEFVKNIDQVSSEVLEGWPDSY [TLR1] yielded an SPOT signal as a fraction of Bim BH3's signal on the same receptor and array of 0.02.
